Measured values from the supplement of paper PMC10899765.

How the values were obtained:
Conditions in all cases: 20 nM; 72 h
MCF10A [1] = experiment: percent viability (nuclei count relative to siNT); higher = more viable cells
Protocol: (§1)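 After 72 h, cells were fixed and stained with Hoechst and anti-fibrillarin, and nucleoli per nucleus were counted with CellProfiler. Values are plate-adjusted percent effect for the one-nucleolus and 5+ nucleoli phenotypes, normalised to siNT (0%) and to the positive controls siNOL11 or siKIF11 (100%), as the mean of biological triplicates. Percent viability is the nuclei count relative to siNT.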

MCF10A [2] = experiment: 5+ nucleoli phenotype percent effect (relative to siNT 0% and siKIF11 100%); higher = more cells with five or more nucleoli
Protocol: as §1

MCF10A [3] = experiment: one-nucleolus phenotype percent effect (relative to siNT 0% and siNOL11 100%); higher = more cells with one nucleolus (ribosome biogenesis inhibition)
Protocol: as §1

Row | Sequence | percent viability (MCF10A [1]) | 5+ nucleoli phenotype percent effect (MCF10A [2]) | one-nucleolus phenotype percent effect (MCF10A [3])
1 | ACCCCCGGGCAAAGACCUGCAGAU [hsa-miR-6840-5p] | 92% | -18.8% | 5.12%
2 | ACCCCUCGUUUCUUCCCCCAG [hsa-miR-6795-3p] | 101% | 14.8% | -18.5%
3 | ACCCCUGCCACUCACUGGCC [hsa-miR-6801-3p] | 62% | 1.82% | -4.08%
4 | ACCCGCCCGUCUCCCCACAG [hsa-miR-7108-3p] | 110% | 28.2% | -20.7%
5 | ACCCGUCCCGUUCGUCCCCGGA [hsa-miR-1247-5p] | 116% | 2.26% | -16.3%
6 | ACCCUAUCAAUAUUGUCUCUGC [hsa-miR-454-5p] | 81.2% | 45.6% | -29.8%
7 | ACCCUCGUCAGGUCCCCGGGG [hsa-miR-4655-3p] | 56.9% | 6.66% | -5.11%
8 | ACCCUUGAGCCUGAUCCCUAGC [hsa-miR-4780] | 99.8% | 4% | -13.2%
9 | ACCCUUUUUCUCUUUCCCAG [hsa-miR-6832-3p] | 76.6% | 38.2% | -12.4%
10 | ACCGAAGACUGUGCGCUAAUCU [hsa-miR-4671-5p] | 99.3% | 14.8% | -20.7%
11 | ACCGCCUGCCCAGUGA [hsa-miR-4485-5p] | 70.4% | 24.1% | -16.3%
12 | ACCGUCUCUUCUGUUCCCCAG [hsa-miR-6827-3p] | 64.6% | -12.7% | 16.9%
13 | ACCGUGCAAAGGUAGCAUA [hsa-miR-1973] | 119% | -30.8% | 2.66%
14 | ACCGUGGCUUUCGAUUGUUACU [hsa-miR-132-5p] | 68.8% | -7.44% | -1.09%
15 | ACCUCCUGUGUGCAUGGAUUA [hsa-miR-660-3p] | 37.2% | -17.5% | 16.9%
16 | ACCUGAAUUACCAAAAGCUUU [hsa-miR-3140-5p] | 118% | 26.3% | -18.7%
17 | ACCUGAGGUUGUGCAUUUCUAA [hsa-miR-544b] | 45.3% | -17.6% | 20.9%
18 | ACCUGCCAGCACCUCCCUGCAG [hsa-miR-4722-3p] | 53.9% | -32.2% | 10.5%

Row | Sequence | percent viability (MCF10A [1]) | 5+ nucleoli phenotype percent effect (MCF10A [2]) | one-nucleolus phenotype percent effect (MCF10A [3])
19 | ACCUGGACCCAGCGUAGACAAAG [hsa-miR-3690] | 79.1% | 65% | -25.7%
20 | ACCUGGCAGCAGGGAGCGUCGU [hsa-miR-8073] | 33.8% | -35.6% | 28.9%
21 | ACCUGGCAUACAAUGUAGAUUU [hsa-miR-221-5p] | 36% | -26.8% | 62.6%
22 | ACCUGGGUUGUCCCCUCUAG [hsa-miR-6742-3p] | 90.1% | 73.9% | -15.1%
23 | ACCUGUCUGUGGAAAGGAGCUA [hsa-miR-4421] | 30.7% | -6.29% | 15.9%
24 | ACCUUCCUCUCCAUGGGUCUUU [hsa-miR-3667-3p] | 32% | -21.3% | 18.2%
25 | ACCUUCUUGUAUAAGCACUGUGCUAAA [hsa-miR-1248] | 96.5% | 33.1% | -15.4%
26 | ACCUUGCAUCUGCAUCCCCAG [hsa-miR-6841-3p] | 28.6% | -39.3% | 15%
27 | ACCUUGCCUUGCUGCCCGGGCC [hsa-miR-1915-5p] | 34.9% | -40.4% | 39.7%
28 | ACGCCCUUCCCCCCCUUCUUCA [hsa-miR-1249] | 85.3% | 29.3% | -13.3%
29 | ACGGAAUAUGUAUACGGAAUAUA [hsa-miR-3669] | 95.9% | 30.9% | -9.77%
30 | ACGGAGACGACAAGACUGUGCUG [hsa-miR-5091] | 32.1% | -11.8% | 3.3%
31 | ACGGAUGUUUGAGCAUGUGCUA [hsa-miR-105-3p] | 117% | 12.2% | -17%
32 | ACGGCCCAGGCGGCAUUGGUG [hsa-miR-6075] | 87.5% | 5.39% | -5.35%
33 | ACGGGCAGGGCAGUGCACCCUG [hsa-miR-7112-5p] | 31.2% | 2.37% | 12.5%
34 | ACGGGGAGUCAGGCAGUGGUGGA [hsa-miR-6777-5p] | 28.5% | -32.1% | 32%
35 | ACGGGUUAGGCUCUUGGGAGCU [hsa-miR-125b-1-3p] | 53.9% | 15.9% | 13.6%
36 | ACGGUGCUGGAUGUGGCCUUU [hsa-miR-1250] | 25% | -44.5% | 57.9%
